Results as given in a protein production outcome set (Wang et al. 2014).

Experiment: label from the status in PepcDB records

Sequence	protein production
YSIALIIPSLFEKACAHFLPSFQQALNKAGYQLLLGYSDYSIEQEEKLLSTFLESRPAGVVLFGSEHSQRTHQLLEASNTPVLEIAELSSKASYLNIGVDHFEVGKACTRHLIEQGFKNVGFIGARGNHSTLQRQLHGWQSAMIENYLTPDHFLTTHEAPSSQLGAEGLAKLLLRDSSLNALVCSHEEIAIGALFECHRRVLKVPTDIAIICLEGSSMGEHAYPSLTSAEFDYERMGTKAAEKLLHAIKGEPEERPTSMGFKLKRRASTAIN	not failed
YYNIYYPRGKDFYNVGGDYKFFWKRFSLLGETAIDKCGTWATMNMLRYSPKGGTQLIVMNRYYDAKYQSVYARSIGEGSTVQNESGFYIGLETSILKYIKMTCYGDFFYFPWKKYLVSKAGTKGLDGLLQLSYSPTYELEMFIRYRYKKKEKDFTAADKTKQTIPSIQQKCRYQLNYSVKDKLTLKTIADYVRINFRGQSASNGFLVSQSAAYTFHLLPLQLDLSAAWFNTDDYNSRLTIYEKSVLYAFSMPSFYYKGMRVAVNARYELNKHIILQAKYGTTHYFNRDKISSALEEIDGSTKSDLYLQLRLKF	failed
